Six molecules from article PMC11933697 (Nature Communications, 2025) can be followed below.

What all share (assay): ITC
The target in assay [1] is T1, hMED25 ACID (389-543) (human, UniProt Q71SY5 389-543).
T1 sequence (looked up): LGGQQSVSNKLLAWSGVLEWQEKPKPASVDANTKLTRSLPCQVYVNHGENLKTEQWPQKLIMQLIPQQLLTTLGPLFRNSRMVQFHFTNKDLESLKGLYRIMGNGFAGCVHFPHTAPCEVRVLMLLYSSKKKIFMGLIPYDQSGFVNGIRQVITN

Assay [2] addresses T2, MED25 ACID I537A/R538A (human, UniProt Q71SY5 389-543, I537A | R538A).
T2 sequence (looked up): T1 sequence (looked up) with I149A, R150A

The target of assay [3] is T3, MED25 ACID I541A/T542A (human, UniProt Q71SY5 389-543, I541A | T542A).
T3 sequence (looked up): T1 sequence (looked up) with I153A, T154A

Assay [4] has as its target T4, NS1/MED25 ACID complex (human respiratory syncytial virus …, UniProt P0DOE9 1-139; Q71SY5 389-543).
T4 sequence (looked up) 1: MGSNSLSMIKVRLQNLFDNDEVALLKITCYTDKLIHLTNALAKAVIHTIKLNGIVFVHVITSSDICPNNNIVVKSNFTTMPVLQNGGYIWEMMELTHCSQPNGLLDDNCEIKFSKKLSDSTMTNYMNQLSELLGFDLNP
T4 sequence (looked up) 2: T1 sequence (looked up)

In assay [5] the target is T1, hMED25 ACID (389-543). The source holds these as a separate data set.

Residue numbers refer to the chain shown, from its start. In names and notes the source's numbering stands. Like-named read-outs stand apart in the source and are kept apart here.

B1: NS1 E110A (natural protein, human respiratory syncytial virus (hRSV), UniProt P0DOE9 1-139, looked up)
chain: T4 sequence (looked up) 1 with E110A
One may read the Kd as the free concentration of one partner at which half of the binding sites on the other are occupied at equilibrium, for simple one-to-one binding. A lower Kd goes with a tighter complex. In the case of B1, binding in assay [1] was put at a Kd of 1740 ± 370 nM.

B2: NS1 Y125A (natural protein, human respiratory syncytial virus (hRSV), UniProt P0DOE9 1-139, looked up)
chain: T4 sequence (looked up) 1 with Y125A
Molecule B2 registered a Kd in assay [1] of 182 ± 20 nM.

B3: NS1 N85A (natural protein, human respiratory syncytial virus (hRSV), UniProt P0DOE9 1-139, looked up)
chain: T4 sequence (looked up) 1 with N85A
For B3, in assay [1], the Kd was 41 ± 8 nM.

B4: hRSV NS1 (1-139) (natural protein, human respiratory syncytial virus (hRSV), UniProt P0DOE9 1-139, looked up)
chain: T4 sequence (looked up) 1
For B4, the Kd in assay [2] is 82 ± 10 nM; in assay [3], 116 ± 30 nM; in assay [1], 41 ± 5 nM.

B5: NS1 ΔDLNP (domain or fragment, human respiratory syncytial virus (hRSV), UniProt P0DOE9 1-135, looked up)
chain: MGSNSLSMIKVRLQNLFDNDEVALLKITCYTDKLIHLTNALAKAVIHTIKLNGIVFVHVITSSDICPNNNIVVKSNFTTMPVLQNGGYIWEMMELTHCSQPNGLLDDNCEIKFSKKLSDSTMTNYMNQLSELLGF
In the case of B5, the binding result in assay [1] is “binds”.

B6: hATF3 bZIP (88-149) (domain or fragment, human, UniProt P18847 88-149, looked up)
chain: RKKRRRERNKIAAAKCRNKKKEKTECLQKESEKLESVNAELKAQIEELKNEKQHLIYMLNLH
Take B6: the Kd in assay [4] turned out to be 3080 ± 1320 nM; in assay [5], 1290 ± 321 nM.
